assay: purified protein yield per well (BCA); higher = higher soluble expression
Outline: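 Candidate enzymes were produced in E. coli C41(DE3) grown in 2 mL autoinduction cultures containing 100 µg/mL kanamycin, first at 37 °C for 2 h and then at 18 °C for 40 h. After cell lysis, protein was captured on Ni-charged magnetic beads and freed by SUMO protease cleavage on an OT-2 robot. Purified protein yield per well was read with the Pierce Rapid Gold BCA kit. Values under 25 ug (0.1 mg/mL) fall below the detection threshold.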

**Q.** Which “purified protein yield per well” value does the source give for “QQIGPNPTSAQLNATSGPFAVSSSNVLIASGFGGGTIYYPTQSGSYGVIAVCPGFTGTSSSISWFARRLATHGFVTIAMDTNTLLDQPDSRATQLRAALNYLINNSSSTIRSRINPNLRGVAGHSMGGGGTLIASASDSTLKVGIPLTPWNLSSLPFYSIRVPQLVFGADGDTIAPYAVHARPFYNAIPSTTKKAYALLQSASHFTPNTTDERIGRYGVAFAKRWVYNDTRYSTFLTGAEHNAYNNILRFQTYLHNGPY [DP062]” here?
**A.** < 25 µg

**Q.** For “MQVARDGSAFQSPPETSGGIRSWRPTGRLWQRGVAAVAAAATLGALTIALTAVQPAAGAENPYQRGPDPTPASVSANRGTFATAQVSVPAGNGFGGGVIYYPTDTSQGKFGAIAIVPGYTATWAAEGAWMGPWLASFGFVVIGIDTNTRNDWDNARGQQLLAALDYLTQRSSVRDRVDATRTAVMGHSMGGGGAAYASLQRPSLKTSIGLAPASFSQNLTTTKVPTMLLSGQNDTTVSPASVLSLYNGIPAGVEKAYLELSNVGHLFPTSNNPTMMRNIIPWFKIFIDSDTRYTQFLCPLSNTTGIRSYQSTCPLVPSTPPTTTTTTTTTSTTTTTDTTTTTTDTTTTTTDSTTSTTTTTPGSGPSCTAAYTVVNQWGGGFQAEVRVAAGSTPISGWTVTWAWANGQTVTQQWSATITSSGPNVTAVNVGYNGNLGAGAATTFGFIASVNGANTPPTLACAAR [ESM022]”, which “purified protein yield per well” value is on record?
**A.** < 25 µg

**Q.** For “CDSILSQSLTNTGPYNVLSINESDGIRNGQHYNGATIFYPEGNLTNLASMVFVPGYSNTQLSIQNWGFFLASHGIVTMTIGTNSLLDSHIKRKDALLDALVTVKQENVRVSSPLYNSLDTLKLALGGFSKGGGGAQLAASVGQNIKAIIALYPWLENISSSDLNHNVPVLIVSGSLDIIAPPSLHADVHYMYTPQTTNKLKYELAFGTHDPLTGPNAGSGEVGKKTLSWLQTFLLSDTCFCPYLLDTPNNASIYMSNLNCTEIGTNTNNLQSNTEKKLVKIIDVFGREVSPKKNMILFYVYDNQSVKKIIIK [TEP094]”, which “purified protein yield per well” value is on record?
**A.** < 25 µg

**Q.** For “YNPPPPPPDPGPGPGQPSDGFERGPNPSVSFLEASRGPFSIRETRVSGTVRGFGGGTIYYPTGTSGTMGAIVVIPGFVSPESSIAWWGPKLASHGFVVMTIATNSGYDQPRSRATQINSALDYLIDQNSDSRSPVRNMIDTDRLGVMGWSMGGGGTLRVASQNRLKAAVGLAPYDTISFRNVDAPTMILACESDTIAPVRNHASPFYNEIPFNTDKAFFEINGGSHTCANGGNRFNETLSRLGVSWMKR [ESM179]”, which “purified protein yield per well” value is on record?
**A.** < 25 µg

**Q.** With “ATVACSDCSNGFQRGTLPRVDQLESSRGPYSVKTSNVSVFARGFGGGTIHYSTDSGGQQGIIAVIPGYVSYESSIKWWGPRLASWGFTVITINTNTIYDQPNSRANQLSAAIDYVIDKGNDRSSPIYGLVDPERVGVIGWSMGGGGTLKLATDRDIDAIIPQAPWYSGLNSFSRITTPTMVIACQADAVAPVALHASIFYNQIPRSTPKAFFEIAAGSHFCGNSGYPNEDILGRNGVAWMKRFIDNDTRYNQFLCGQNFDRSLRVSDYKDTCNTY [DP094]” as the sequence, how does the “purified protein yield per well” value read?
**A.** < 25 µg

**Q.** For “QTSAPTSASLNATAGPLSVSTASVLVPVGFGGGTIYYPTVAGQYGVIAISPGFTATQSSIAWLGRRIATHGFVVITLNTNTTLDQPDSRATQLLAALRYVTNSSGTAVRSRIDATRLAVAGHSMGGGGSLIAARDNPTLKASYPLTPWNISTNFSTVRVPTLIIGADGDTIAPVASHARPFYASLPSTTFKAYGELNNATHFTPNSTSTPIGRYGVAWFKRFLDGDTRYSPFLCGAQHTAYATALVFDRYNQNCPY [ESM141]”, which “purified protein yield per well” value is on record?
**A.** < 25 µg

**Q.** With “DEVGQAPTAANIVGDGSFATTSSAITGQSGFGGGTVYYPTTAGRYPVVAVAPGFLSDWNSLNWLGSRVASWGFVVVGVNTNSGFDFPPSRGDQLLAALNWAVGSAPVAVRDKVDGTRRGVAGWSMGGGGTLEALAKDTTGTVKAGVPLAPWHSDKTWEQVSEPVFLVGGQNDTVAAPSSHAIPFYNSLGGQKSYLELAGQAHFFPTTSNPTVSRAIVSWFKRFVSSDNRFTPFTCGYTGSAVSNFRSSAC [ESM100]” as the sequence, how does the “purified protein yield per well” value read?
**A.** < 25 µg

**Q.** For “EENPYARGPAPTNASIEADRGSFQTATEKVPAGQGFGGGTIHYPTDTGQGTFGAIAIAPGFFETESAIAWYGPRLASQGFVVITFSTKSTWDTPDLRSDQLLAALRYVTDKSQAKDRVDPGRLAVMGHSMGGGGSLIAAQKAPTLKAAIPLTGWNPNTVFSDLKVPTFVVSAQNDFIAPDGSHSRPFYQSLPESLDKAYLLLAGAGHMAPTKPNVTIAKYSLSWLKRFVDEDTRYDQFLCPLPANDPKIAVYRGTCPLG [TEP064]”, which “purified protein yield per well” value is on record?
**A.** < 25 µg

**Q.** For “ADNPYQRGPDPTVASVAATRGPFATAQLTVPAGNGFGGGYLYYPTDTSQGTWGAVAIVPGYSALFANEEAWMGPWLASFGFVVIGVETITRTDGADARATELLAALDYLTQRSAVRDRIDATRLAVMGHSAGGAGTILAAEQRPSLKAGVGLAPGTPGSLSLATDKVPMMVVGGQTDPTVTPAYLDNLYAGMPATTPSDFVQIAGADHLFFTRANNTEMKVLIPWLKIFLDNDTRYTQFLCPSLADPSGISLYRSKCPYLPPGTPSPSPSVSPSNPAAGCTASYRTVGSWPGGFQGEVTVTAGGAALNGWTVGWTLGSGQTITQVWNGTLTTSGSAVTVRNASYSGSVPAGGSITFGFLAAGTPSVPALTCAG [ESM028]”, which “purified protein yield per well” value is on record?
**A.** < 25 µg

**Q.** With “QTSDPTSTSLNATSGPLSISSTSVSSFSARGFGGGTIYYPSASGRYGVVAISPGYTARQSSIAWLGRRLASHGFVVITIDTNSTLDQPPSRATQLMAALDHVVNRASSTVRSRVDAARLAVAGHSMGGGGSLIAARDNPSLRAVYPMTPWSVSKDFSAVRVPTMIIGADNDSVASVVTHARPFYSSLAASLPKAYGELNNASHFAPNTTNTPIGRYAVTWMKRFVDGDTRYSPFLCGTPHNQYATSQVFARYQQNCPY [ESM134]” as the sequence, how does the “purified protein yield per well” value read?
**A.** < 25 µg

**Q.** For “HAPVHQPAVAHHHAPFAVRTTAVPKTAVTTFGGGVIYTPQDTGKAVLGAVVITPGFTDTNADEKEMAELVASQGFVAFAIDTLDTSDLPAQRSTEILAAADYLTGQSAVKSQVSAKDVGLIGYSFGGGGTMEAAQARPSIKAAIGLMPFDFPDANDPNAQYATYPKLTTPTLVITGEKDDVATPKDYGKPAYDSIPAGTPKQYLELKGLGHGAGEHVPVPTIRNAVTAFLKRYLDGNSAYAKFICPAPKVGGPISVSLSSCPKG [TEP026]”, which “purified protein yield per well” value is on record?
**A.** < 25 µg

**Q.** With “ADNPYQRGPDPTVASVAATRGTFATAQLTVPAGNGFGGGYVYYPTDTSQGTWGAVAIVPGYSARFADEEAWMGPWLASFGFVVIGVETITRTDGADARATQLLAALDYLVGQSPVRDRVDPARLAVMGHSAGGAGTIIAAERRPSLRAAVGLAPGTPGSLSLATDRVPMMVIGGQTDPTVTPSYLDNLYATVPAATPSDFVQIAGADHLFFTRANNTEMKVLIPWLKIFLDSDTRYTSLLCPSLADPSGISLYRSKCPYVPPGTTSPSPSSPSPSSPGPPVPVAACTATYRTVNAWPGGFQGEVVVTAGGTAITGWTVRWTLGSGQTISQLWNGNLTTSGSAVTVDSAAYNGSVPPAGSVVFGFLATGSPTTPAPVCASP [ESM046]” as the sequence, how does the “purified protein yield per well” value read?
**A.** < 25 µg

**Q.** For “MRSSVTQVPACKGAETSEARPRTGSRPVGLRAVVVAVVAGLIAALVSAQPVSARPAPARPGAAQDNPYERGPDPTVGSVAAQRGTFATAEMNVSPGNGFNGGKIYYPTDTSQGTWGAVAAVPGFTARWAAEGAWMGHWLASFGFVVIGIDTNSPNDYDTARGTQLLAALDYLTQKSPVRDRVDPDRLGVIGHSMGGGGAISAAVRRPSLKAAVPLAPFSPSQDLSTLRVPTMIMGARDDGTVTPSYLDGLYARTPAATQSAFIELTSGGHGFPTWGNSHVTRRMIPWLKIFIDNDTRYTQFLCPSPADRSNISRWQTKCPYVPPGGTTPPPSGGQVVGAGSARCLDVPSQTNGTQVRLWDCLDRAGQKWTRTEAAELRVHGGKCLDAEASGTSPGTRVVIWDCHGGQNQRWNIGTNGTITSTRSGLCLDAYNSGTANGTQVVLWNCNGGANQRWTFR [DP042]”, which “purified protein yield per well” value is on record?
**A.** < 25 µg

**Q.** Which “purified protein yield per well” value does the source give for “ATTAGTFGGVAISPGYTASESTIAWLGPRIASQGFVVITFNTNSRYDQPASRGDQLLAALDYLTGSSAVRARVDASRLAVMGHSMGGGGALEAAKDRPSLQAAIPLTGWNTDKTWPEVRTPTLVIGAENDSVAPVGSHSIPFYNSLTSAPERAYLELNNASHFAPNSPNTDIASSSIAWLKRYVDDDTRYTQFLCPGPSVSAFGSVSDYRATCPM [TEP154]” here?
**A.** < 25 µg

Reference: the supplement of paper PMC12455559
